Source: patent US6284879A, “Transport associated protein splice variants” (The General Hospital Corporation, priority 1998, dated 2001)

Test system: HLA class I (A2) on T2 cells
Assay: restoration of surface expression of HLA class I (A2) on transfected T2 cells, flow cytometry
Format: cell-based, human
Conditions: for Mean fluorescence of HLA class 1 (A2) Mean ± SD / surface expression of HLA/MHC class I: T2 cells transfected with the named cDNAs; for Mean fluorescence of HLA class 1 (A2) Mean ± SD: four separate experiments, at least three stable clones; for surface expression of HLA/MHC class I: in words
Protocol: Plasmid DNAs were prepared using MAXI-PREP kits (Qiagen). TAP1- and TAP2-deficient T2 cells (donated by P. Cresswell, Howard Hughes Medical Institute, Yale University) (1-2×10^7 cells/ml) were transfected by electroporation with 10 μg of TAP1 and TAP2 or TAP2iso linear plasmid DNA in a 0.4-cm cuvette at 260 V and 960 μF. Subcloning and selection of transfectants were performed by culturing in the presence of hygromycin (250 μg/ml) or histidinol ([…]) for the PREP 4 and PREP8 vectors, respectively.
Immune complexes were detected with fluorescein isothiocyanate-conjugated goat anti-mouse IgG antibodies (Coulter, Hialeah, Fla.) and an Epics Elite flow cytometer (Coulter).
T2 cells were transfected with TAP1 cDNA in combination with TAP2 or TAPiso cDNAs as described above.

B1: TAP1: known TAP1 subunit (TAP1 A allele cDNA) (protein)
chain: MASSRCPAPRGCRCLPGASLAWLGTVLLLLADWVLLRTALPRIFSLLVPTALPLLRVWAVGLSRWAVLWLGACGVLRATVGSKSENAGAQGWLAALKPLAAALGLALPGLALFRELISWGAPGSADSTRLLHWGSHPTAFVVSYAAALPAAALWHKLGSLWVPGGQGGSGNPVRRLLGCLGSETRRLSLFLVLVVLSSLGEMAIPFFTGRLTDWILQDGSADTFTRNLTLMSILTIASAVLEFVGDGIYNNTMGHVHSHLQGEVFGAVLRQETEFFQQNQTGNIMSRVTEDTSTLSDSLSENLSLFLWYLVRGLCLLGIMLWGSVSLTMVTLITLPLLFLLPKKVGKWYQLLEVQVRESLAKSSQVAIEALSAMPTVRSFANEEGEAQKFREKLQEIKTLNQKEAVAYAVNSWTTSISGMLLKVGILYIGGQLVTSGAVSSGNLVTFVLYQMQFTQAVEVLLSIYPRVQKAVGSSEKIFEYLDRTPRCPPSGLLTPLHLEGLVQFQDVSFAYPNRPDVLVLQGLTFTLRPGEVTALVGPNGSGKSTVAALLQNLYQPTGGQLLLDGKPLPQYEHRYLHRQVAAVGQEPQVFGRSLQENIAYGLTQKPTMEEITAAAVKSGAHSFISGLPQGYDTEVDEAGSQLSGGQRQAVALARALIRKPCVLILDDATSALDANSQLQVEQLLYESPERYSRSVLLITQHLSLVEQADHILFLEGGAIREGGTHQQLMEKKGCYWAMVQAPADAPE
Mean fluorescence of HLA class 1 (A2) Mean ± SD: 5.19 ± .35 | surface expression of HLA/MHC class I: no effect

B2: TAP1/TAP2: previously known TAP transporter, heterodimer of the TAP1 and TAP2 gene products (protein)
chain 1: MASSRCPAPRGCRCLPGASLAWLGTVLLLLADWVLLRTALPRIFSLLVPTALPLLRVWAVGLSRWAVLWLGACGVLRATVGSKSENAGAQGWLAALKPLAAALGLALPGLALFRELISWGAPGSADSTRLLHWGSHPTAFVVSYAAALPAAALWHKLGSLWVPGGQGGSGNPVRRLLGCLGSETRRLSLFLVLVVLSSLGEMAIPFFTGRLTDWILQDGSADTFTRNLTLMSILTIASAVLEFVGDGIYNNTMGHVHSHLQGEVFGAVLRQETEFFQQNQTGNIMSRVTEDTSTLSDSLSENLSLFLWYLVRGLCLLGIMLWGSVSLTMVTLITLPLLFLLPKKVGKWYQLLEVQVRESLAKSSQVAIEALSAMPTVRSFANEEGEAQKFREKLQEIKTLNQKEAVAYAVNSWTTSISGMLLKVGILYIGGQLVTSGAVSSGNLVTFVLYQMQFTQAVEVLLSIYPRVQKAVGSSEKIFEYLDRTPRCPPSGLLTPLHLEGLVQFQDVSFAYPNRPDVLVLQGLTFTLRPGEVTALVGPNGSGKSTVAALLQNLYQPTGGQLLLDGKPLPQYEHRYLHRQVAAVGQEPQVFGRSLQENIAYGLTQKPTMEEITAAAVKSGAHSFISGLPQGYDTEVDEAGSQLSGGQRQAVALARALIRKPCVLILDDATSALDANSQLQVEQLLYESPERYSRSVLLITQHLSLVEQADHILFLEGGAIREGGTHQQLMEKKGCYWAMVQAPADAPE
chain 2: MRLPDLRPWTSLLLVDAALLWLLQGPLGTLLPQGLPGLWLEGTLRLGGLWGLLKLRGLLGFVGTLLLPLCLATPLTVSLRALVAGASRAPPARVASAPWSWLLVGYGAAGLSWSLWAVLSPPGAQEKEQDQVNNKVLMWRLLKLSRPDLPLLVAAFFFLVLAVLGETLIPHYSGRVIDILGGDFDPHAFASAIFFMCLFSFGSSLSAGCRGGCFTYTMSRINLRIREQLFSSLLRQDLGFFQETKTGELNSRLSSDTTLMSNWLPLNANVLLRSLVKVVGLYGFMLSISPRLTLLSLLHMPFTIAAEKVYNTRHQEVLREIQDAVARAGQVVREAVGGLQTVRSFGAEEHEVCRYKEAKEQCRQLYWRRDLERALYLLIRRVLHLGVQMLMLSCGLQQMQDGELTQGSLLSFMIYQESVGSYVQTLVYIYGDMLSNVGAAEKVFSYMDRQPNLPSPGTLAPTTLQGVVKFQDVSFAYPNRPDRPVLKGLTFTLRPGEVTALVGPNGSGKSTVAALLQNLYQPTGGQVLLDEKPISQYEHCYLHSQVVSVGQEPVLFSGSVRNNIAYGLQSCEDDKVMAAAQAAHADDFIQEMEHGIYTDVGEKGSQLAAGQKQRLAIARALVRDPRVLILDEATSALDVQCEQALQDWNSRGDRTVLVIAHRLQTVQRAHQILVLQEGKLQKLAQL
Mean fluorescence of HLA class 1 (A2) Mean ± SD: 7.59 ± .31 | surface expression of HLA/MHC class I: restored surface expression

B3: TAP1/TAP2iso: novel TAP heterodimer of TAP1 and splice variant TAP2iso, expressed from transfected cDNAs (protein)
chain 1: MASSRCPAPRGCRCLPGASLAWLGTVLLLLADWVLLRTALPRIFSLLVPTALPLLRVWAVGLSRWAVLWLGACGVLRATVGSKSENAGAQGWLAALKPLAAALGLALPGLALFRELISWGAPGSADSTRLLHWGSHPTAFVVSYAAALPAAALWHKLGSLWVPGGQGGSGNPVRRLLGCLGSETRRLSLFLVLVVLSSLGEMAIPFFTGRLTDWILQDGSADTFTRNLTLMSILTIASAVLEFVGDGIYNNTMGHVHSHLQGEVFGAVLRQETEFFQQNQTGNIMSRVTEDTSTLSDSLSENLSLFLWYLVRGLCLLGIMLWGSVSLTMVTLITLPLLFLLPKKVGKWYQLLEVQVRESLAKSSQVAIEALSAMPTVRSFANEEGEAQKFREKLQEIKTLNQKEAVAYAVNSWTTSISGMLLKVGILYIGGQLVTSGAVSSGNLVTFVLYQMQFTQAVEVLLSIYPRVQKAVGSSEKIFEYLDRTPRCPPSGLLTPLHLEGLVQFQDVSFAYPNRPDVLVLQGLTFTLRPGEVTALVGPNGSGKSTVAALLQNLYQPTGGQLLLDGKPLPQYEHRYLHRQVAAVGQEPQVFGRSLQENIAYGLTQKPTMEEITAAAVKSGAHSFISGLPQGYDTEVDEAGSQLSGGQRQAVALARALIRKPCVLILDDATSALDANSQLQVEQLLYESPERYSRSVLLITQHLSLVEQADHILFLEGGAIREGGTHQQLMEKKGCYWAMVQAPADAPE
chain 2: MRLPDLRPWTSLLLVDAALLWLLQGPLGTLLPQGLPGLWLEGTLRLGGLWGLLKLRGLLGFVGTLLLPLCLATPLTVSLRALVAGASRAPPARVASAPWSWLLVGYGAAGLSWSLWAVLSPPGAQEKEQDQVNNKVLMWRLLKLSRPDLPLLVAAFFFLVLAVLGETLIPHYSGRVIDILGGDFDPHAFASAIFFMCLFSFGSSLSAGCRGGCFTYTMSRINLRIREQLFSSLLRQDLGFFQETKTGELNSRLSSDTTLMSNWLPLNANVLLRSLVKVVGLYGFMLSISPRLTLLSLLHMPFTIAAEKVYNTRHQEVLREIQDAVARAGQVVREAVGGLQTVRSFGAEEHEVCRYKEAKEQCRQLYWRRDLERALYLLIRRVLHLGVQMLMLSCGLQQMQDGELTQGSLLSFMIYQESVGSYVQTLVYIYGDMLSNVGAAEKVFSYMDRQPNLPSPGTLAPTTLQGVVKFQDVSFAYPNRPDRPVLKGLTFTLRPGEVTALVGPNGSGKSTVAALLQNLYQPTGGQVLLDEKPISQYEHCYLHSQVVSVGQEPVLFSGSVRNNIAYGLQSCEDDKVMAAAQAAHADDFIQEMEHGIYTDVGEKGSQLAAGQKQRLAIARALVRDPRVLILDEATSALDVQCEQAKTLWKFMIF
Mean fluorescence of HLA class 1 (A2) Mean ± SD: 11.16 ± .50 | surface expression of HLA/MHC class I: restored surface expression | surface MHC class I expression, greater than in cells transfected with TAP1-TAP2 cDNAs (transfected T2 cells): 30%
